B1: 重叠肽HPV16E7 67-84 (peptide)
peptide: LCVQSTHVDIRTLEDLLM
B2: 重叠肽HPV16E7 73-90 (peptide)
peptide: HVDIRTLEDLLMGTLGIV
B3: 重叠肽HPV16E7 85-98 (peptide)
peptide: GTLGIVCPICSQKP
B4: 重叠肽HPV16E7 49-66 (peptide)
peptide: RAHYNIVTFCCKCDSTLR

The binders below were run against 抗HPV16E7蛋白单抗69A6 (assay: indirect competition ELISA, peptide at 1μmol/L competes with coated HPV16E7 whole protein for 69A6).

Row | Binder | 抑制率 [%]
1 | B1 | 47.3
2 | B2 | 56.2
3 | B3 | 48.6
4 | B4 | 15.6

The binders below were run against 抗HPV16E7蛋白单抗69A6 (assay: indirect competition ELISA, peptide at 10μmol/L competes with coated HPV16E7 whole protein for 69A6).

Row | Binder | 抑制率 [%]
5 | B1 | 91.6
6 | B2 | 93.5
7 | B3 | 92
8 | B4 | 16.3
